Assay results as given in paper PMC5400778.

Target: His-tagged BG505 SOSIP.664 trimer with the N185h glycan site removed (HIV (isolate BG505)) (UniProt Q2N0S6)
Experiment: SPR; Biacore 3000, 25°C; His-tagged BG505 SOSIP trimers immobilised on the chip by His-tag capture; PGT145 Fab as analyte; kinetic analysis

B1: PGT145 Fab (Fab, V domains shown)
VH: QVQLVQSGAEVKKPGSSVKVSCKASGNSFSNHDVHWVRQATGQGLEWMGWMSHEGDKTGLAQKFQGRVTITRDSGASTVYMELRGLTADDTAIYYCLTGSKHRLRDYFLYNEYGPNYEEWGDYLATLDVWGHGTAVTVSS
VL: EVVITQSPLFLPVTPGEAASLSCKCSHSLQHSTGANYLAWYLQRPGQTPRLLIHLATHRASGVPDRFSGSGSGTDFTLKISRVESDDVGTYYCMQGLHSPWTFGQGTKVEIK
  stoichiometry N: 0.96
